The source of these data is the supplement of paper PMC9233669.

The test system of this series is biotinyl-Phe-oxazolone. The series is described as follows: self-aminoacylation, catalytic enhancement (BFO) (fold over background); higher = more active; k-Seq, kA / k0A0; sequences stand for … in GGGAAUGGAUCCACAUCUACGAAUUC…UUCACUGCAGACUUGACGAAGCUG
In a few lines:
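Working in 50 μL HEPES/NaCl/KCl/MgCl2/CaCl2 buffer with 5% acetonitrile at pH 6.9–7.0, mutagenized RNA pools (0.43 μM; 21-nt variable region) were reacted with 2–1250 μM of each biotinyl-aminoacyl-oxazolone for 90 minutes at room temperature. Streptavidin capture followed, with quantification by triplicate qPCR and Illumina sequencing. Catalytic enhancement is reported as median kA over the uncatalyzed rate, the low-activity peak of a bimodal Gaussian fit to the data.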

Variants at the floor of the assay were thinned out.

As for “AAAUUUGCUAAUAGUCGAAAG [Fam3.1 aminoacylation ribozyme variant]”, the self-aminoacylation was found to be 4.94.

For “AAAUUUGCUAAUAGUCUCAAG [Fam3.1 aminoacylation ribozyme variant]”, the self-aminoacylation came out at 2.03.

With “AAGAUUGCUAAUAGUCACAAG [Fam3.1 aminoacylation ribozyme variant]”, the self-aminoacylation was 2.63.

Regarding “AAGGUAGCUAAUAGUCGCAAG [Fam3.1 aminoacylation ribozyme variant]”, the self-aminoacylation is 3.35.

Take “AAGGUUACUAAUAGUCGCAAG [Fam3.1 aminoacylation ribozyme variant]”: the self-aminoacylation came to 2.19.

As to “AAGGUUGCUAAUAGUCGCCAG [Fam3.1 aminoacylation ribozyme variant]”, the self-aminoacylation stood at 2.54.

On to “AAGGUUGCUUAUAGUCGCAAG [Fam3.1 aminoacylation ribozyme variant]”, for which the self-aminoacylation came to 2.7.

Turning to “AAGUAUACUAAUAGUCGCAAG [Fam3.1 aminoacylation ribozyme variant]”, the self-aminoacylation was determined as 2.34.

As to “AAGUCUGCUAAUAGUCGCAAU [Fam3.1 aminoacylation ribozyme variant]”, the self-aminoacylation came out at 6.06.

Regarding “AAGUUAGCUAAUAGUCACAAG [Fam3.1 aminoacylation ribozyme variant]”, the self-aminoacylation turned out to be 3.83.

On to “AAGUUAGCUAAUAGUCGCAAU [Fam3.1 aminoacylation ribozyme variant]”, for which the self-aminoacylation was found to be 2.2.

For “AAGUUAGCUAAUAGUCGCACG [Fam3.1 aminoacylation ribozyme variant]”, the self-aminoacylation came out at 2.06.

Take “AAGUUCGCUAAUAGUCGAAAG [Fam3.1 aminoacylation ribozyme variant]”: the self-aminoacylation stood at 4.18.

For “AAGUUGGCUAAUAGUCGCCAG [Fam3.1 aminoacylation ribozyme variant]”, the self-aminoacylation was found to be 2.1.

On to “AAGUUGGCUAAUAGUCGCUAG [Fam3.1 aminoacylation ribozyme variant]”, for which the self-aminoacylation stood at 2.22.

“AAGUUUACGAAUAGUCGCAAG [Fam3.1 aminoacylation ribozyme variant]”: the self-aminoacylation turned out to be 2.82.

In the case of “AAGUUUACUAAUAGUUGCAAG [Fam3.1 aminoacylation ribozyme variant]”, the self-aminoacylation turned out to be 2.19.

With “AAGUUUGCGGAUAGUCGCAAG [Fam3.1 aminoacylation ribozyme variant]”, the self-aminoacylation amounted to 2.73.

For “AAGUUUGCUAAUAAUCGUAAG [Fam3.1 aminoacylation ribozyme variant]”, the self-aminoacylation was 3.54.

As to “AAGUUUGCUAAUAGUCGCAAA [Fam3.1 aminoacylation ribozyme variant]”, the self-aminoacylation amounted to 2.2.

On to “AAGUUUGCUAAUAGUCGCCUG [Fam3.1 aminoacylation ribozyme variant]”, for which the self-aminoacylation amounted to 7.8.

For the sequence “AAGUUUGCUAAUUGUCGCAAU [Fam3.1 aminoacylation ribozyme variant]”, the self-aminoacylation stood at 6.81.

Consider “AAGUUUGUUAAAAGUCGCAAG [Fam3.1 aminoacylation ribozyme variant]”, for which the self-aminoacylation was 2.4.

Consider “AAGUUUUCUAAUAGUCUCAAG [Fam3.1 aminoacylation ribozyme variant]”, for which the self-aminoacylation stood at 2.15.

For “AAGUUUUCUAGUAGUCGCAAG [Fam3.1 aminoacylation ribozyme variant]”, the self-aminoacylation amounted to 2.53.

Regarding “AAUUUUGCUAAUAGUCACAAG [Fam3.1 aminoacylation ribozyme variant]”, the self-aminoacylation was found to be 3.77.

Turning to “AUAACCCUGGUCGUCGAGUGA [Fam2.1 aminoacylation ribozyme variant]”, the self-aminoacylation was 2.78.

“AUACUUCAAACAAUCGGUCUA [Fam1A.1 aminoacylation ribozyme variant]”: the self-aminoacylation turned out to be 3.14.

Regarding “AUACUUCAAACAAUCUGUCUG [Fam1A.1 aminoacylation ribozyme variant]”, the self-aminoacylation stood at 2.2.

As to “AUCUUUGCUAAUAGUCGCAAG [Fam3.1 aminoacylation ribozyme variant]”, the self-aminoacylation was determined as 2.44.

As for “AUGUUUGCUAAUAGUCGCAAU [Fam3.1 aminoacylation ribozyme variant]”, the self-aminoacylation turned out to be 2.83.

On to “AUGUUUGCUACUAGUCGCAAG [Fam3.1 aminoacylation ribozyme variant]”, for which the self-aminoacylation worked out at 2.12.

On to “AUGUUUGCUCAUAGUCGCAAG [Fam3.1 aminoacylation ribozyme variant]”, for which the self-aminoacylation is 2.41.

As for “AUUACCCUGGUCAGCGAGUGC [Fam2.1 aminoacylation ribozyme variant]”, the self-aminoacylation was 8.87.

In the case of “AUUCACCUACGUCAUCGGGUU [Fam2.2 aminoacylation ribozyme variant]”, the self-aminoacylation turned out to be 2.52.

Regarding “AUUCACCUAGGUAAUCGAGUG [Fam2.2 aminoacylation ribozyme variant]”, the self-aminoacylation came to 2.87.

Turning to “AUUCACCUAGGUCACCUGGUG [Fam2.2 aminoacylation ribozyme variant]”, the self-aminoacylation worked out at 8.5.

Take “AUUCACCUAGGUCGUCGGGUC [Fam2.2 aminoacylation ribozyme variant]”: the self-aminoacylation was determined as 5.09.

For “AUUCACCUAGGUCUUCGUGUG [Fam2.2 aminoacylation ribozyme variant]”, the self-aminoacylation was 5.39.

Regarding “AUUCGCCUAGGUCAUCGGUUG [Fam2.2 aminoacylation ribozyme variant]”, the self-aminoacylation came out at 4.32.

With “AUUCUCCUAGGUCAUCGUGUG [Fam2.2 aminoacylation ribozyme variant]”, the self-aminoacylation is 3.73.

Regarding “AUUGACCUAGGUCAUCGGGUC [Fam2.2 aminoacylation ribozyme variant]”, the self-aminoacylation was 3.83.

“CAACUUCACACAAUCGGUCUG [Fam1A.1 aminoacylation ribozyme variant]”: the self-aminoacylation was 3.02.

Consider “CCACACAUCAAUCAAUCGGUC [Fam1B.1 aminoacylation ribozyme variant]”, for which the self-aminoacylation is 2.22.

Regarding “CCACACUUCAAGCAAUCGAUC [Fam1B.1 aminoacylation ribozyme variant]”, the self-aminoacylation was found to be 2.02.

“CCACUGCAAACAAUCGGUCUG [Fam1A.1 aminoacylation ribozyme variant]”: the self-aminoacylation was 4.13.

For the sequence “CGACUGCAAACAAUCGGUCUG [Fam1A.1 aminoacylation ribozyme variant]”, the self-aminoacylation was 6.2.

For “CGACUUCAAACAAUCGAUCUG [Fam1A.1 aminoacylation ribozyme variant]”, the self-aminoacylation came to 3.21.

For “CUACUCCAAACAAUCGGUUUG [Fam1A.1 aminoacylation ribozyme variant]”, the self-aminoacylation turned out to be 2.1.

With “CUACUGCAAACAAGCGGUCUG [Fam1A.1 aminoacylation ribozyme variant]”, the self-aminoacylation came out at 5.58.

For “CUACUGCAAACAAUCGGUCCG [Fam1A.1 aminoacylation ribozyme variant]”, the self-aminoacylation stood at 6.96.

With “CUACUGCAAACAAUCGGUGUG [Fam1A.1 aminoacylation ribozyme variant]”, the self-aminoacylation was found to be 3.44.

Regarding “CUACUUCAAACAAUCGCUCUG [Fam1A.1 aminoacylation ribozyme variant]”, the self-aminoacylation was found to be 2.58.
